Source: IntAct's records for PubMed 15143163

B1: Low-density lipoprotein receptor-related protein 5 (Homo sapiens), O75197 (parent)
chain: MEAAPPGPPWPLLLLLLLLLALCGCPAPAAASPLLLFANRRDVRLVDAGGVKLESTIVVSGLEDAAAVDFQFSKGAVYWTDVSEEAIKQTYLNQTGAAVQNVVISGLVSPDGLACDWVGKKLYWTDSETNRIEVANLNGTSRKVLFWQDLDQPRAIALDPAHGYMYWTDWGETPRIERAGMDGSTRKIIVDSDIYWPNGLTIDLEEQKLYWADAKLSFIHRANLDGSFRQKVVEGSLTHPFALTLSGDTLYWTDWQTRSIHACNKRTGGKRKEILSALYSPMDIQVLSQERQPFFHTRCEEDNGGCSHLCLLSPSEPFYTCACPTGVQLQDNGRTCKAGAEEVLLLARRTDLRRISLDTPDFTDIVLQVDDIRHAIAIDYDPLEGYVYWTDDEVRAIRRAYLDGSGAQTLVNTEINDPDGIAVDWVARNLYWTDTGTDRIEVTRLNGTSRKILVSEDLDEPRAIALHPVMGLMYWTDWGENPKIECANLDGQERRVLVNASLGWPNGLALDLQEGKLYWGDAKTDKIEVINVDGTKRRTLLEDKLPHIFGFTLLGDFIYWTDWQRRSIERVHKVKASRDVIIDQLPDLMGLKAVNVAKVVGTNPCADRNGGCSHLCFFTPHATRCGCPIGLELLSDMKTCIVPEAFLVFTSRAAIHRISLETNNNDVAIPLTGVKEASALDFDVSNNHIYWTDVSLKTISRAFMNGSSVEHVVEFGLDYPEGMAVDWMGKNLYWADTGTNRIEVARLDGQFRQVLVWRDLDNPRSLALDPTKGYIYWTEWGGKPRIVRAFMDGTNCMTLVDKVGRANDLTIDYADQRLYWTDLDTNMIESSNMLGQERVVIADDLPHPFGLTQYSDYIYWTDWNLHSIERADKTSGRNRTLIQGHLDFVMDILVFHSSRQDGLNDCMHNNGQCGQLCLAIPGGHRCGCASHYTLDPSSRNCSPPTTFLLFSQKSAISRMIPDDQHSPDLILPLHGLRNVKAIDYDPLDKFIYWVDGRQNIKRAKDDGTQPFVLTSLSQGQNPDRQPHDLSIDIYSRTLFWTCEATNTINVHRLSGEAMGVVLRGDRDKPRAIVVNAERGYLYFTNMQDRAAKIERAALDGTEREVLFTTGLIRPVALVVDNTLGKLFWVDADLKRIESCDLSGANRLTLEDANIVQPLGLTILGKHLYWIDRQQQMIERVEKTTGDKRTRIQGRVAHLTGIHAVEEVSLEEFSAHPCARDNGGCSHICIAKGDGTPRCSCPVHLVLLQNLLTCGEPPTCSPDQFACATGEIDCIPGAWRCDGFPECDDQSDEEGCPVCSAAQFPCARGQCVDLRLRCDGEADCQDRSDEADCDAICLPNQFRCASGQCVLIKQQCDSFPDCIDGSDELMCEITKPPSDDSPAHSSAIGPVIGIILSLFVMGGVYFVCQRVVCQRYAGANGPFPHEYVSGTPHVPLNFIAPGGSQHGPFTGIACGKSMMSSVSLMGGRGGVPLYDRNHVTGASSSSSSSTKATLYPPILNPPPSPATDPSLYNMDMFYSSNIPATARPYRPYIIRGMAPPTTPCSTDVCDSDYSASRWKASKYYLDLNSDSDPYPPPPTPHSQYLSAEDSCPPSPATERSYFHLFPPPPSPCTDSS
partner: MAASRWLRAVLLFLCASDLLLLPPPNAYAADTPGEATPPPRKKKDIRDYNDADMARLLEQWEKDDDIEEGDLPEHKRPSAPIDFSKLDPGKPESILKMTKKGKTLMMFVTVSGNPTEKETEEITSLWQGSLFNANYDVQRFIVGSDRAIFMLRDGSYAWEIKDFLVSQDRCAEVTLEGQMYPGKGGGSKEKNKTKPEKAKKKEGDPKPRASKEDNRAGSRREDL

Variants of: B1
Conditions: with mesd_mouse Mesd

Variant	effect of a mutation on the interaction
G171V	disrupting interaction
